# Assay results published in article PMC4104026.
# Molecular target: Hfq (His6-tagged) (UniProt P0A6X3)
# Assay: EMSA
# Conditions: Single-RNA EMSA: 10 mM Tris-HCl pH 7.4, 0.1 mM EDTA, 10 mM NH4Cl, 10 mM NaCl, 10 mM KCl, 1 mg/ml tRNA, 4% glycerol, RT 5 min; ~40 fmol RNA (legend; Methods say …)
# Hfq (His6-tagged), sequence (P0A6X3 whole entry): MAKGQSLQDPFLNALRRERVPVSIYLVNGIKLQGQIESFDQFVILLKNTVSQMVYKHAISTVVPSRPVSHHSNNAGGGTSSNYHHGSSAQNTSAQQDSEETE
substance,measurement,value
DppA mRNA 5' 166 nt (DppASal),binding signal (fold higher affinity than AgvB and GcvB),10
